Data reported in the RNAGym collection of RNA variant scans (doi:10.1073/pnas.2313332121).
Fewer inactive variants are shown than the library holds.

B1: TPR 5TU (parent)
chain: GGAUCUUCUCGAUCUAACAAAAAAGACAAAUCUGCCACAAAGCUUGAGAGCAUCUUCGGAUGCAGAGGCGGCAGCCUUCGGUGGCGCGAUAGCGCCAACGUUCUCAACUAUGACACGCAAAACGCGUGCUCCGUUGAAUGGAGUUUAUCAUG

Variants of: B1
Assay: polymerase ribozyme fitness, log enrichment relative to wild type (log ratio); higher = more active; in vitro selection for triplet polymerase activity
Summary of the method: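 After PCR construction and transcription, each subunit's mutant library from a heterodimeric triplet polymerase ribozyme was annealed with a biotinylated primer, the partner subunit and triplets. Incubation was frozen, at −7 °C, and extended constructs were gel-excised, bound to streptavidin beads and amplified by RT-PCR, in one selection round done in triplicate. Fitness is the logarithm of a genotype's enrichment divided by that of the wild type, from inverse-variance-weighted replicate averages of Illumina-sequenced inputs and outputs. The base of the logarithm is 2, and genotypes needed ≥10 input reads and ≥1 read per output.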

U7C A16C C35U C63U A121G G133C and C8U C27U A37C U55A C87G U111A C118G G124A cannot be ordered by “polymerase ribozyme fitness (log ratio)” value: no more than -4.2 for the first, no more than -4.2 for the second.

C8U A20C A49G U53A C95A A106G C118G and U7A A26G A47G A66U G71C C131U U139G cannot be ordered by “polymerase ribozyme fitness (log ratio)” value: no more than -4.2 for the first, no more than -4.2 for the second.

Going from C8U A19C U33G U53A U55A C96G C108U to U9C A37C U55G A66C G70C C76A C131U, the “polymerase ribozyme fitness (log ratio)” value falls from -3.8 to no more than -4.2.

U7C C27G C57G G88C G124A U134G and C8U U56G G59A G65A G84U A91G cannot be ordered by “polymerase ribozyme fitness (log ratio)” value: no more than -4.2 for the first, no more than -4.2 for the second.

First: C8U C10G C35G C57A A66U G86U U134C U139C U148A
Second: U6G A17U A60G C93A A98U
The “polymerase ribozyme fitness (log ratio)” value of the first is lower: no more than -4.2 for the first, -1.75 for the second.

U7G U15G U56G C93A A115C U130G and U6G U56A G70C C85G A107U U144G cannot be ordered by “polymerase ribozyme fitness (log ratio)” value: no more than -4.2 for the first, no more than -4.2 for the second.

Going from C8A C14G to U6G G94C C123A, the “polymerase ribozyme fitness (log ratio)” value rises from -3.51 to 0.0628.

C8A U55A C79U G84A C108G G124A and U7G C96U C129U A137G cannot be ordered by “polymerase ribozyme fitness (log ratio)” value: no more than -4.2 for the first, no more than -4.2 for the second.

C8A C76A C85U G143C A150U and C8U A39C G59C C96U C103A C114U C116U cannot be ordered by “polymerase ribozyme fitness (log ratio)” value: no more than -4.2 for the first, no more than -4.2 for the second.

C8G A22U C85U C103U and C8U C79A G92A C105A cannot be ordered by “polymerase ribozyme fitness (log ratio)” value: no more than -4.2 for the first, no more than -4.2 for the second.

U9A U31G C57U G74C G92C and U6G C38U U44A G81C A120C G140U cannot be ordered by “polymerase ribozyme fitness (log ratio)” value: no more than -4.2 for the first, no more than -4.2 for the second.

C8U C14G G50C A106U A110G and U7A U45C G50U G83A A89U G94C A115U G141A cannot be ordered by “polymerase ribozyme fitness (log ratio)” value: no more than -4.2 for the first, no more than -4.2 for the second.

C8G A30C C75A G86U C118G and U7C G50C C51U C87U G152U cannot be ordered by “polymerase ribozyme fitness (log ratio)” value: no more than -4.2 for the first, no more than -4.2 for the second.

First: U6C U56G A64C G143U
Second: C8A U53A
The “polymerase ribozyme fitness (log ratio)” value of the first is lower: no more than -4.2 for the first, -3.45 for the second.

U9A C10G G48U C63G C85A A137G G141U and U7A A21C U53G U56A G58C A60U C75A cannot be ordered by “polymerase ribozyme fitness (log ratio)” value: no more than -4.2 for the first, no more than -4.2 for the second.

Compared with C8U A60U, U7A C36U C95G is lower in “polymerase ribozyme fitness (log ratio)” value: -3.79 for the first, no more than -4.2 for the second.

U9A U13A A29G C96A C132A and U6G C18G A66C G68C G88C G152C cannot be ordered by “polymerase ribozyme fitness (log ratio)” value: no more than -4.2 for the first, no more than -4.2 for the second.

U6G C43A A52C C85A A98U A113C and U9A A16U C57U G70A C79A G88U C95U A119U U151A cannot be ordered by “polymerase ribozyme fitness (log ratio)” value: no more than -4.2 for the first, no more than -4.2 for the second.

Going from C8U G50U G71C C85G to U6C U31C A52U G58A C95G U145A, the “polymerase ribozyme fitness (log ratio)” value rises from no more than -4.2 to -2.9.

U7G A24C C43A A47G C75U C85A G86A C103G and U7C C10U A40C C85A A89C G100A C116A cannot be ordered by “polymerase ribozyme fitness (log ratio)” value: no more than -4.2 for the first, no more than -4.2 for the second.

C8A A20G G68C C85A G126A and U7A C27A G59U G83A G94A C103G cannot be ordered by “polymerase ribozyme fitness (log ratio)” value: no more than -4.2 for the first, no more than -4.2 for the second.

First: U7A U45G A49C G50C C87U C96A
Second: U6G C10G
The “polymerase ribozyme fitness (log ratio)” value of the first is lower: no more than -4.2 for the first, -3.01 for the second.

First: U6G G83C
Second: C8G C14U A26C U61A C69U G80A U145G
The “polymerase ribozyme fitness (log ratio)” value of the first is higher: -0.223 for the first, no more than -4.2 for the second.

First: U9A A22U A39G C96G U109G
Second: C8A A17C A24G A30G C35G G81C A89C G141C
The “polymerase ribozyme fitness (log ratio)” value of the first is lower: no more than -4.2 for the first, -3.67 for the second.

Compared with C8U A52U C54U G83A C118A U127G, C8U C99A is higher in “polymerase ribozyme fitness (log ratio)” value: no more than -4.2 for the first, -3.69 for the second.

First: C8U C57U U61A G117A A121U U134C
Second: U6G A26U G84C
The “polymerase ribozyme fitness (log ratio)” value of the first is lower: -4.09 for the first, -2.97 for the second.

U6G A60C A73C C87A C118U and C8U A39G G86U U102C U111G U144C G152A cannot be ordered by “polymerase ribozyme fitness (log ratio)” value: no more than -4.2 for the first, no more than -4.2 for the second.

Compared with C8U C57A, C8U C57U is lower in “polymerase ribozyme fitness (log ratio)” value: -2.69 for the first, -3.18 for the second.

First: U7G C57U G59C G88A C93A A115C
Second: C8U A30U C32U A64G C76A A97G A107U C108U A110G C116A
The “polymerase ribozyme fitness (log ratio)” value of the first is lower: no more than -4.2 for the first, -4.12 for the second.

Compared with C8G A20C, U7A A29G G67A C69U G80C C103G U104C C105U G136A G140U is lower in “polymerase ribozyme fitness (log ratio)” value: -3.59 for the first, no more than -4.2 for the second.

C8U A26U U44A C85U A115U C118A G133U and C8G A22G U44A A52C A73C C125G cannot be ordered by “polymerase ribozyme fitness (log ratio)” value: no more than -4.2 for the first, no more than -4.2 for the second.

Compared with C8G G70C C93U C99U U148G, U6G U31C U55A C95U A98G G141C is higher in “polymerase ribozyme fitness (log ratio)” value: no more than -4.2 for the first, -1.61 for the second.

U9A A16U U56A G84A C131U and U9A C75U G88C C99G U101A C118U A137C cannot be ordered by “polymerase ribozyme fitness (log ratio)” value: no more than -4.2 for the first, no more than -4.2 for the second.

C8A A26U and U7C A41C C87U G126A are within 0.2 log units of each other in “polymerase ribozyme fitness (log ratio)” value: -3.66 for the first, -3.82 for the second.

U7C U31A G46A G59C C85G C118U and C8A U31C A41U G58A G71A C76U C125U A142G cannot be ordered by “polymerase ribozyme fitness (log ratio)” value: no more than -4.2 for the first, no more than -4.2 for the second.

Compared with U7A C18U, U7G A20C U56A C72G A73G C85U C93G A98G A115U is lower in “polymerase ribozyme fitness (log ratio)” value: -3.45 for the first, no more than -4.2 for the second.

C8A A30U C43G U144C and C8A A49G G71A C93U G152A cannot be ordered by “polymerase ribozyme fitness (log ratio)” value: no more than -4.2 for the first, no more than -4.2 for the second.

First: C8A U53A A73U G74U G92U A142U G143A
Second: U6G A73U G81C A98C C99U U144C
The “polymerase ribozyme fitness (log ratio)” value of the first is lower: no more than -4.2 for the first, -3.62 for the second.

Compared with U7C A16U G92C C116G, C8A A24G A41C C93U A97U A120G is lower in “polymerase ribozyme fitness (log ratio)” value: -3.77 for the first, no more than -4.2 for the second.

C8G G62C G70U C96A C103U and C8G A147C cannot be ordered by “polymerase ribozyme fitness (log ratio)” value: no more than -4.2 for the first, no more than -4.2 for the second.

C8U A17U G42C C116U C125U U146G and U7C A39G C85G C105A A107U cannot be ordered by “polymerase ribozyme fitness (log ratio)” value: no more than -4.2 for the first, no more than -4.2 for the second.

First: U7A A22C C85U
Second: U6G C54U G81A U135G
The “polymerase ribozyme fitness (log ratio)” value of the first is lower: -4.04 for the first, -3.31 for the second.
